For assay [1], the target named is T1, recombinant human Siglec15-his protein (human, UniProt Q6ZMC9 20-263).
T1 construct: In house made; Biotin-labeled in the capture ELISA
T1 sequence: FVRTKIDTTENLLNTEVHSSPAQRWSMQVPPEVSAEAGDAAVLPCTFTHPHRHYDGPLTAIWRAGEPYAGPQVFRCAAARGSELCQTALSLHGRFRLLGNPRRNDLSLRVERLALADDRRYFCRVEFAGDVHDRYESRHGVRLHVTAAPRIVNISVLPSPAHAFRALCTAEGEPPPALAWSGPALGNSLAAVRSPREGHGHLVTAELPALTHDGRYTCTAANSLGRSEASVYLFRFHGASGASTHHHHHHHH
As to the kind of experiment: SPR Biacore T200, antibody captured by anti-human IgG, antigen as analyte, 1:1 fit. As for the experimental part: (§1) Briefly, goat anti-human IgG (GE healthcare, Cat #BR100839, Human Antibody Capture Kit) was covalently linked to a CM5 chip (carboxy methyl dextran coated chip, GE healthcare, Cat #BR-1005-30) via primary amines, using a standard amine coupling kit provided by Biacore (GE healthcare, Pittsburgh, Pa., USA). Un-reacted moieties on the biosensor surface were blocked with ethanolamine. Then, purified anti-Siglec15 antibodies of the disclosure at the concentration of 13.3 nM and an anti-Siglec15 benchmark (ch5G12, also referred to as BM, see U.S. Patent Publication No. 20190202912A1, amino acid sequences of the heavy chain and light chain set forth in SEQ ID NOs: 24 and 25, respectively) at 13.3 nM, were respectively flowed onto the chip at a flow rate of 10 μL/min. Then, serially diluted recombinant human Siglec15-his protein (in house made, amino acid sequence set forth in SEQ ID NO: 20) or cynomolgus monkey Siglec15-his protein (in house made, amino acid sequence set forth in SEQ ID NO: 21), 2-fold serial dilution in HBS-EP⁺ buffer starting at 80 nM, were respectively flown onto the chip at a flow rate of 30 μL/min. The antigen-antibody association kinetics was followed for 2 minutes and the dissociation kinetics was followed for 10 minutes. The association and dissociation curves were fit to a 1:1 Langmuir binding model using BIAcore evaluation software.
On the technique in general: SPR reads the build-up and loss of mass on a sensor chip optically.

Assay [2] concerns the target T2, cynomolgus monkey Siglec15-his protein (cynomolgus monkey).
T2 construct: In house made; also called Cynomolgus Siglec15-his; cynomolgus Siglec15
T2 chain: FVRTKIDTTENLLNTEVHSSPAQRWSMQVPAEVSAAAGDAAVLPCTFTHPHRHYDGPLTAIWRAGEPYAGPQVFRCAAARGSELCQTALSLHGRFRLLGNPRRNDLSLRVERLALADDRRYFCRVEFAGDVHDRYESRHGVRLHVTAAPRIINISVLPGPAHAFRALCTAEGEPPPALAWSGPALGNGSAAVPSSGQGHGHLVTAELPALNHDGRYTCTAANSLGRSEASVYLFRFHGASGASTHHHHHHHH
The assay is described as above. As for the experimental part: as §1

Assay [3] has as its target T3, mouse Siglec15-his protein (mouse).
T3 construct: In house made
T3 chain: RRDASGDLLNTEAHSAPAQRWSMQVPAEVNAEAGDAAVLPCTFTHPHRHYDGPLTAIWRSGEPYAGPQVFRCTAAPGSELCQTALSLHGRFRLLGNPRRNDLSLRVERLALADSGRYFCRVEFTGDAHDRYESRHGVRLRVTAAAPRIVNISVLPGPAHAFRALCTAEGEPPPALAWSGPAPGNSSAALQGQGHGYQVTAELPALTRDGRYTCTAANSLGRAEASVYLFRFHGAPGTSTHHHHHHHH
As to the kind of experiment: indirect ELISA on coated mouse Siglec15-his. As for the experimental part:
(§2) The anti-Siglec15 antibodies' cross-reactions to cynomolgus or mouse Siglec15 proteins were measured. Briefly, 96-well micro plates were coated with 100 μl of 2 μg/ml cynomolgus Siglec15-his protein (in house made with SEQ ID NO: 21), or 2 μg/ml mouse Siglec15-his protein (in house made with SEQ ID NO: 22) in carbonate/bicarbonate buffer (pH 9.6) for 2 hours at 37° C. ELISA plates were washed once with wash buffer (PBS+0.05% v/v Tween-20, PBST) and then blocked with 200 μl/well blocking buffer (5% w/v non-fatty milk in PBST) overnight at 4° C. Plates were washed 4 times and incubated with 100 μl serially diluted anti-Siglec15 antibodies of the disclosure or controls (starting at 66.7 nM, 5-fold serial dilution in PBST with 2.5% w/v non-fatty milk) for 40 minutes at 37° C. ELISA plates were washed 4 times again and incubated with Peroxidase AffiniPure Goat Anti-Human IgG, F(ab)₂ fragment specific (1:5000 dilution in PBST buffer, Jackson Immunoresearch, Cat #109-035-097, 100 μl/well) for 40 minutes at 37° C. After a final wash, plates were incubated with 100 μl/well TMB (Innoreagents, Cat #TMB-S-002). The reaction was stopped 4 minutes later at room temperature with 50 μl 1M H₂SO₄, and the absorbance of each well was read on a microplate reader using dual wavelength mode with 450 nm for TMB and 630 nm as the reference wavelength, then the OD (450-630) values were plotted against antibody concentration. Data was analyzed using Graphpad Prism software and EC₅₀ values were reported.

The target of assay [4] is T2, cynomolgus monkey Siglec15-his protein. Kind of assay: indirect ELISA on coated cynomolgus Siglec15-his. As for the experimental part: as §2
For assay [5] the target is unchanged. As to the kind of experiment: indirect ELISA on coated cynomolgus Siglec15-his. The protocol:
as §2
(In an ELISA, binding on a coated surface is turned into a signal by an enzyme label.)

Read-outs that look alike come from different tables or passages of the source.

Results on 8 molecules are retold here after patent US20230106715A1 (BIOSION, published 2023).

B1: A2A5C7E8 (antibody, V domains shown)
VH: EVQLVQSGAEVKKPGESLRISCKGSGYSFTTYWISWVRQMPGKGLEWMGLIDPSDSYTNYSPSFQGHVTISTDKSISTAYLQWSSLKASDTAMYYCARGGYYGSEEDYWGQGTLVTVSS
VL: EIVLTQSPGTLSLSPGERATLSCRASQSVSSSRLAWFQQKSGQAPRLLIFDASSRATGIPDRFSGSGSGTDFTLTISRLEPEDFAVYYCQQYGSSPRTFGQGTKVEFK
notes: Fully human antibody from transgenic mouse hybridoma; also called A2A5C7E8-1
As for B1, the results for the Kd in assay [1] and in assay [2] were 0.041 nM and 0.0681 nM, respectively. Also, the figures for the koff in assay [1] and in assay [2] were 9.98e-05 s⁻¹ and 8.49e-05 s⁻¹, respectively. Also, the kon (commonly the second-order rate constant of association) amounted to 2.43e+06 M⁻¹ s⁻¹ in assay [1] and 1.25e+06 M⁻¹ s⁻¹ in assay [2]. Also, the EC50 (in general, the concentration that produces a half-maximal response) in assay [3] stood at 0.26 nM; in assay [4], 0.136 nM.

B2: A2A5C7E8-2 (antibody, human IgG1, kappa, V domains shown)
VH: EVQLVQSGAEVKKPGESLRISCKGSGYSFTTYWISWVRQMPGKGLEWMGLIDPSESYTNYSPSFQGHVTISTDKSISTAYLQWSSLKASDTAMYYCARGGYYGSEEDYWGQGTLVTVSS
VL: EIVLTQSPGTLSLSPGERATLSCRASQSVSSSRLAWFQQKSGQAPRLLIFDASSRATGIPDRFSGSGSGTDFTLTISRLEPEDFAVYYCQQYGSSPRTFGQGTKVEFKR
notes: Variant of A2A5C7E8 modified in VH CDR2 (X1 = E)
Consider B2, for which the EC50 in assay [4] turned out to be 0.15 nM.

B3: A2A5C7E8-3 (antibody, human IgG1, kappa, V domains shown)
VH: EVQLVQSGAEVKKPGESLRISCKGSGYSFTTYWISWVRQMPGKGLEWMGLIDPSDSYTNYSPSFKGHVTISTDKSISTAYLQWSSLKASDTAMYYCARGGYYGSEEDYWGQGTLVTVSS
VL: EIVLTQSPGTLSLSPGERATLSCRASQSVSSSRLAWFQQKSGQAPRLLIFDASSRATGIPDRFSGSGSGTDFTLTISRLEPEDFAVYYCQQYGSSPRTFGQGTKVEFKR
notes: Variant of A2A5C7E8 modified in VH CDR2 (X2 = K)
B3: the EC50 in assay [4] came out at 0.146 nM.

B4: B2D7H7A3C1 (antibody, V domains shown)
VH: QVQLQQSGAELVRPGTSVQMSCKAAGYTFTNYWIGWVKQRPGHGLEWVGDIHPGINYTNNNEKFRGKATLTADTSSNTAYMQLRGLTSDDSAIYYCARVDYDYDGSYIMDYWGQGTSVTVSS
VL: QIVLSQSPALLSASPGEKVTMTCRASSSVSYMYWYQQKPGSSPKPWIYATSNLTSGVPARFSGSGSGTSYSLTISRVEAEDAATYFCQQWNSKPWTFGGGSKLEIR
notes: Mouse monoclonal antibody from hybridoma; also called mouse B2D7H7A3C1
For B4, the EC50 in assay [5] turned out to be 0.197 nM.

B5: B2G12H3E8 (antibody, V domains shown)
VH: QVQLKQSGAELVRPGTSVQMSCKAVGYTFTNYWIGWVKQRPGHGLEWVGDIHPGINYTNNNEKFRGKATLTADTSSSTAYMQLRGLTSDDSAIYYCARVDYDYDGSYIMDYWGQGTSVTVSS
VL: QIVLSQSPALLSASPGEKVTMTCRASSSVSYMYWYQQKPGSSPKPWIYATSNLTSGVPARFSGSGSGTSYSLTISRVEAEDAATYFCQQWNSKPWTFGGGSKLEIR
notes: Mouse monoclonal antibody from hybridoma; also called mouse B2G12H3E8
In the case of B5, in assay [5], a half-maximal response (EC50) required 0.146 nM.

B6: B2H2H1H7 (antibody, V domains shown)
VH: QVQLQQSGAELVRPGTSVQMSCKAAGYTFTNYWIGWVKQRPGHGLEWVGDIHPGINYTNNNEKFRGKATLTADTSSSTAYMQLRGLTSDDSAIYYCARVDYDYDGSYIMDYWGQGTSVTVSS
VL: QIILSQSPALLSASPGEKVTMTCRASSSVSYMYWYQQKPGSSPKPWIYATSNLTSGVPARFSGSGSGTSYSLTISRVEAEDAATYFCQQWNSKPWTFGGGSRLEIR
notes: Mouse monoclonal antibody from hybridoma; also called mouse B2H2H1H7; B2H2H1A7
B6 had an EC50 in assay [5] of 0.179 nM.

B7: anti-Siglec15 benchmark (ch5G12) (antibody, human IgG1, kappa, V domains shown)
VH: QVQLQQPGAELVKPGASVKMSCKASGYTFTSYWITWVIQRPGQGLEWIGDIYCGSDTMHYNEKFKNKATLTVDTSSSTAYMQLSSLTSEDSAVYYCARWWDYGSSYDYFDYWGQGTTLTVSS
VL: DIKMTQSPSSMYASLGERVTITCKASQDINSYLSWFQQKPGKSPKTLIYRANRLVDGVPSRFSGSGSGQDYSLTISSLEYEDMGIYYCLQYDEFPYTFGGGTKLEIKR
notes: ch5G12 (US 20190202912A1); also called BM; Siglec15-ch5G9
B7: the Kd (as a rule, a measure of binding affinity in units of concentration) in assay [1] came to 0.265 nM; in assay [2], 0.448 nM. Besides, the koff (in general, the rate constant with which the complex falls apart) is 0.00172 s⁻¹ in assay [1] and 0.000788 s⁻¹ in assay [2]. Further, the kon in assay [1] was 6.51e+06 M⁻¹ s⁻¹; in assay [2], 1.76e+06 M⁻¹ s⁻¹. Besides, the EC50 was 0.361 nM in assay [3], 0.201 nM in assay [5] and 0.313 nM in assay [4].

B8: A1E10G7H9 (antibody, V domains shown)
VH: QVQLQESGPGLVKPSGTLSLTCAVSGGSISSSNWWHWVRQPPGKGLEWIGEIYHSGNTNYKPSLKSRVTISVDKSKNQFSLKLSSVTAADTAVYYCARDEGNGWSNAFDIWGQGTMVTVSS
VL: ENVLTQSPGTLSLSPGERVTLSCRASQSVSSSYLAWYQQKPGQAPRFLIYGASGGATGIPDRFSGSGSGTDFTLTISRLEPEDFAVYYCQQYGSSPITFGQGTRLEIK
notes: Fully human antibody from transgenic mouse hybridoma
Consider B8, for which, in assay [1], the Kd was 0.0139 nM, the koff is 0.0001 s⁻¹ and the kon amounted to 7.18e+06 M⁻¹ s⁻¹. Also, in assay [2], binding was characterised by a dissociation constant (Kd) of 0.0269 nM, the koff came to 0.000104 s⁻¹ and the kon came to 3.89e+06 M⁻¹ s⁻¹. Also, in assay [3], a half-maximal effect (EC50) was put at 0.329 nM.
